Data on 18 molecules can be found in patent US20230227537A1 (VIB VZW, published 2023).

In assay [1] the target is T1, BSA (Bos taurus, UniProt P02769).
T1 construct: coated on the ELISA plate; also called negative control antigen
The experiment in a line: ELISA on coated BSA, anti-VHH-HRP, OD450 [upper graph]. Background: An ELISA detects its analyte on a solid surface through an enzyme-linked reagent.

For assay [2], the target named is SARS-CoV-2 RBD protein Avi-tag biotinylated (AcroBiosystems SPD-C82E9) (SARS-CoV-2, UniProt P0DTC2 330-518). The experiment in a line: competition AlphaLISA; competitor human ACE2-mFc. For orientation: In Alpha technology, singlet oxygen from a donor bead excites a nearby acceptor bead.
Assay [3] addresses T2, Mouse IgG1 Fc fused SARS-CoV-2 RBD (Sino Biological) (SARS-CoV-2; mouse, UniProt P0DTC2 330-518). In words: ELISA on coated SARS-CoV-2 RBD-muFc, anti-VHH-HRP, OD450 [upper graph].
Assay [4] deals with T2, Mouse IgG1 Fc fused SARS-CoV-2 RBD ….
Assay [5] concerns the target T1, BSA. In words: ELISA on coated BSA, anti-VHH-HRP, OD450 [lower graph].
Assay [6] has as its target T2, Mouse IgG1 Fc fused SARS-CoV-2 RBD …. In words: ELISA on coated SARS-CoV-2 RBD-muFc, anti-VHH-HRP, OD450 [lower graph].
The target in assay [7] is T3, WT SARS-CoV-2 RBD displayed on Saccharomyces cerevisiae (SARS-CoV-2, UniProt P0DTC2 331-518).
The target in assay [8] is T3, WT SARS-CoV-2 RBD displayed on …. In words: flow cytometry, yeast cells displaying WT RBD. For orientation: In flow cytometry, cells or beads pass a laser one at a time.
The target of assay [9] is T2, Mouse IgG1 Fc fused SARS-CoV-2 RBD …. The experiment in a line: BLI, RBD-mFc on AMC tips, global 1:1 fit.
Assay [10] deals with SARS-CoV-2 spike, full length, on cells or on pseudotyped/authentic virus (SARS-CoV-2, UniProt P0DTC2 14-1273). The experiment in a line: cell-based or functional assay.

Several values for one entry are separate records, joined by “and”; a condition that tells them apart may be missing. Identical values can stand only once. Like-named read-outs stand apart in the source and are kept apart here. Bounds are passed on as bounds.

As usually defined, the % inhibition is the drop in the measured response relative to a control, in per cent. Low values mean little suppression, high ones strong suppression. What is called IC50 is the concentration at which inhibition is half-maximal. Low readings indicate greater potency in that assay, high ones weaker potency in that assay. In general, EC50 (read off the curve) refers to the concentration giving half of the maximal effect. The Kd is the constant that tells how readily two partners part at equilibrium. Low values mean a tighter complex, high ones a looser complex. Broadly, the koff is the first-order rate constant of dissociation. A lower koff goes with slow dissociation. As a reminder, the kon is the rate constant with which the complex forms. Low readings indicate slow association, high ones fast association.

T1 sequence (P02769 25-607 limits assumed): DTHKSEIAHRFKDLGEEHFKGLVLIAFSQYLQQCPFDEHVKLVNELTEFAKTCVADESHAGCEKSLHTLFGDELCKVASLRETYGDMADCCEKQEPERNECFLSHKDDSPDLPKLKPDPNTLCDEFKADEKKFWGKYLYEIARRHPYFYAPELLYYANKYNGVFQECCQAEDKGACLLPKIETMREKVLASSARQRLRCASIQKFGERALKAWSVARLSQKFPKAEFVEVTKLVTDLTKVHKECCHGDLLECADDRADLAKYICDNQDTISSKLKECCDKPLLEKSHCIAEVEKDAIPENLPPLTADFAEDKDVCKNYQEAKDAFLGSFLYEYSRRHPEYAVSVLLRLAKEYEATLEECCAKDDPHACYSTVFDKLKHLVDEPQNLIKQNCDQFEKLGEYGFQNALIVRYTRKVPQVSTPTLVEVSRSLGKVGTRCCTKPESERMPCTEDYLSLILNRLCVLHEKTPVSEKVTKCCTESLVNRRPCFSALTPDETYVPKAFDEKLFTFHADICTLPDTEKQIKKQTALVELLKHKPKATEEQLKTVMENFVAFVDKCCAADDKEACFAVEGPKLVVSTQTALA

B1: VHH3.36 (VHH)
VHH: QVQLQESGGGLVQAGDSLRLSCVVSGGTFSSYAMGWFRQAPGKERELVAAINWGGISVYYADSVKGRFTISRDNAENTVYLQMNSLKPEDTAVYYCAADPKGWSEWDMEYWGKGTQVTVSS
Regarding B1, the binding result with BSA [1] is on record as “no binding (tested: about 20 µg/ml)”. For the same molecule, in assay [2], the “% inhibition” value is 100% and the IC50 was 0.562 nM. In addition, the “EC50 (read off the curve)” value in [3] is about 0.05 µg/mL.

B2: VHH72 - hIgG1.Hinge-hIgG1.Fc (Fc fusion)
VHH-Fc chain: QVQLQESGGGLVQAGGSLRLSCAASGRTFSEYAMGWFRQAPGKEREFVATISWSGGSTYYTDSVKGRFTISRDNAKNTVYLQMNSLKPDDTAVYYCAAAGLGTVVSEWDYDYDYWGQGTQVTVSS
As to B2, in assay [4], the Kd is 0.0874 nM and 0.0895 nM; the koff is 0.000252 s⁻¹ and 0.000288 s⁻¹; the association rate constant (kon) is 2.88e+06 M⁻¹ s⁻¹ and 3.22e+06 M⁻¹ s⁻¹.

B3: parental VHH72-hIgG1 Fc (P. pastoris supernatant) (Fc fusion)
chain: QVQLQESGGGLVQAGGSLRLSCAASGRTFSEYAMGWFRQAPGKEREFVATISWSGGSTYYTDSVKGRFTISRDNAKNTVYLQMNSLKPDDTAVYYCAAAGLGTVVSEWDYDYDYWGQGTQVTVSS
B3: in assay [4], the Kd is 0.0786 nM and 0.0765 nM; the koff was 0.000261 s⁻¹ and 0.000283 s⁻¹; the kon was 3.33e+06 M⁻¹ s⁻¹ and 3.7e+06 M⁻¹ s⁻¹.

B4: VHH72_h1(S56A) (VHH)
VHH: EVQLVESGGGLVQPGGSLRLSCAASGRTFSEYAMGWFRQAPGKEREFVATISWSGGATYYTDSVKGRFTISRDNAKNTVYLQMNSLRPEDTAVYYCAAAGLGTVVSEWDYDYDYWGQGTLVTVSS
Turning to B4, the binding result with BSA [1] was “no binding (tested: about 20 µg/ml)”.

B5: VHH2.50 (VHH)
VHH: QVQLQESGGGLVQAGGSLRLSCAASGRTFSSIAMGWFRQAPGKEREFVATISWSGGSTYYADSVKGRFTISRDNAKNTVYLQMNSLKPEDTAVYYCAAAGLGTVVSEWDYDYDYWGQGTQVTVSS
For B5, in assay [2], the “% inhibition” value was found to be 79% and the IC50 is 34.2 nM.

B6: VHH3.149 (VHH)
VHH: QVQLQESGGGLVQAGGSLKLSCAASGRTFSSYALGWFRQAPGTEREFVSAINWFGAPTYYADSVKGRFTISRDNAKNTVYLQMDNLKPEDTAVYYCAADSKGWDPQDMDYWGKGTQVTVSS
For the molecule B6, the binding result in the assay with BSA [5] is listed as “no binding (tested: about 20 µg/ml)”. For the same molecule, the “EC50 (read off the curve)” value in [6] was about 0.006 µg/mL. In addition, in [2], the “% inhibition” value was found to be 98% and the IC50 was determined as 0.902 nM.

B7: VHH3.35 (VHH)
VHH: QVQLQESGGGLVQAGGSLTLSCEVSGRTNDNYGVGWFRQVPGAERELVAAIRWSSISRYYKDSVKGRFTISRDNAKNTVYLQMDMLKAEDTAVYYCAADPAGWSEFGMEYWGKGTQVTVSS
Take B7: in the assay with BSA [1], the binding result was “no binding (tested: about 20 µg/ml)”. Moreover, in [2], the “% inhibition” value came out at 100% and the IC50 amounted to 1.06 nM. For the same molecule, the half-maximal effective concentration (EC50 (read off the curve)) in assay [3] is about 0.04 µg/mL.

B8: VHH3.55 (VHH)
VHH: QVQLQESGGGLVQAGGSLRLSCEVSGRTNDNYGVGWFRQVPGAERELVAAIRWSSISRYYKDSVKGRFTISRDNAKNTVYLQMDMLKPEDTAAYYCAADPAGWSEFGMEYWGKGTQVTVSS
With B8, the binding result with BSA [5] is recorded as “no binding (tested: about 20 µg/ml)”. Further, the “EC50 (read off the curve)” value in [6] was about 0.01 µg/mL; in assay [7], about 0.002 µg/mL. In assay [2], the “% inhibition” value was determined as 100%. The molecule further came in with an IC50 in [2] of 0.817 nM. For the same molecule, the “concentration at which binding was just below saturation” value (“concentration” below) in assay [8] is 10 ng/mL.

B9: VHH3.83 (VHH)
VHH: QVQLQESGGGLVQPGDSLRLSCVLSGGVFTSYAMGWFRQAPGKEREFLAAITFNSDATYYADSVKGRFTISRDNAKNTAYLQMNSLKPNDTAVYSCAAGGNHYNPQYYHDYDKYDHWGQGTQVTVSS
Regarding B9, in assay [2], the “% inhibition” value was determined as 74% and the IC50 was determined as 0.46 nM. The “EC50 (read off the curve)” value in [7] is about 0.003 µg/mL. Also, the “concentration” value in [8] worked out at 10 ng/mL.

B10: VHH3.38 (VHH)
VHH: QVQLQESGGGLVQAGGSLRLSCAASGGTFNNYAMAWFRQAPGQERELVAAMFWSGLPKYYADSVKGRFTISTDDAKNTVYLQMNGLKPEDTAVYYCAADSRGWSDVGGMDYWGKGTQVTVSS
With B10, the binding result with BSA [1] was “no binding (tested: about 20 µg/ml)”. Moreover, in assay [2], the “% inhibition” value turned out to be 99% and the IC50 was determined as 2.01 nM. Besides, the “EC50 (read off the curve)” value in [7] was about 0.001 µg/mL. For the same molecule, in [8], the “concentration” value is 10 ng/mL. In assay [3], the “EC50 (read off the curve)” value is about 0.04 µg/mL.

B11: VHH3.115 (VHH)
VHH: QVQLQESGGGLVQTGGSLRLSCAASGLTFSDIAMGWFRQAPGREREFVATISWSGGGTYYAEPVRGRFAISRDNAKNTVYLQMNSLKPEDTAVYYCAAAGAGTVVSEWDYDYDYWGQGTQVTVSS
Take B11: the binding result with BSA [5] is listed as “no binding (tested: about 20 µg/ml)”. Moreover, the concentration giving a half-maximal response (EC50 (read off the curve)) in assay [6] was about 0.006 µg/mL. Moreover, in assay [2], the “% inhibition” value was 100% and the IC50 amounted to 1.08 nM.

B12: VHH3.47 (VHH)
VHH: QVQLQESGGGLVQAGDSLRLSCAASGHNFSTYAMAWFRQAPGTERELVAAISENDVMRYYADSVKGRFTISRDNAKNMAYLQMNSLKVEDTAVYLCAADPKGWSEWDMDYWGKGTQVTVSS
In the case of B12, the “EC50 (read off the curve)” value in assay [6] is about 0.03 µg/mL. In addition, in assay [2], the “% inhibition” value came to 100% and the IC50 is 0.729 nM.

B13: VHH3.77 (VHH)
VHH: QVQLQESGGGLVQAGGSLRLSCVSSGRAFGNGAVGWFRQGPGRPREFVATVSWNGGGTYFAESVRGRFTISRDNAKNTVYLQMNNLKPEDTAVYYCALAGEGTVVSEWDYDYEYWGQGTQVTVSS
With B13, the binding result with BSA [5] was “no binding (tested: about 20 µg/ml)”. The half-maximal effective concentration (EC50 (read off the curve)) in [6] is about 0.03 µg/mL. In addition, in assay [2], the “% inhibition” value was determined as 97% and the IC50 worked out at 0.723 nM.

B14: VHH3BE4 (VHH)
VHH: QVQLQESGGGLVQAGGSLRLSCVASGRAFGNGAVGWFRQAPGREREFVATVSWNGGGTYYAESVRGRFTISRDNAKSTVYLQMNSLKPEDTAVYYCASAGEGTVVSEWDYDYDYWGQGTQVTVSS
As for B14, in [2], the “% inhibition” value was 100% and the IC50 was determined as 0.634 nM.

B15: VHH3.17 (VHH)
VHH: QVQLQESGGGLVEAGGSLTLSCAASGRAFGDGAVGWFRQGPGRPREFVATVSWNGGGTYFAESVRGRFTISRDNAKNTVYLQMNNLKPEDTAVYYCALAGEGTVVSEWDYDYEYWGQGTQVTVSS
Turning to B15, the binding result with BSA [1] is given as “no binding (tested: about 20 µg/ml)”. Also, in assay [2], the “% inhibition” value worked out at 99% and the IC50 is 1.03 nM. The “EC50 (read off the curve)” value in assay [3] was about 0.05 µg/mL.

B16: VHH3.144 (VHH)
VHH: QVQLQESGGGLVQAGGSLRLSCVASGRAFGNGAVGWFRQAPGREREFVATVSWNGGGTYYAESVRGRFTISRDNAKSTVYLQMNSLKPEDTAVYYCASAGEGTVVSEWDYDYDYWGQGTQVTVSS
For the molecule B16, in the assay with BSA [5], the binding result is reported as “no binding (tested: about 20 µg/ml)”. For the same molecule, in assay [2], the “% inhibition” value was 100% and the IC50 is 1.12 nM.

B17: VHH3.29 (VHH)
VHH: QVQLQESGGGLVQAGGSLRLSCVASGRTFSSGGMGWFRQAPGQEREFVAGIGWAGLSSYYLDSVKGRFTISLDNAKNTVYLQMNMLKPEDTGVYYCAADDHGWSAAGMDYLGQGTQVTVSS
As to B17, the binding result in the assay with BSA [1] is reported as “no binding (tested: about 20 µg/ml)”. In assay [2], the “% inhibition” value is 97% and the IC50 is 1 nM. In addition, in [3], the “EC50 (read off the curve)” value is about 0.03 µg/mL.

B18: D72-13: VHH72-h1_(G4S)3-VHH72-h1_GS_hIgG1hinge-hIgG1Fc (Fc fusion)
chain: EVQLVESGGGLVQPGGSLRLSCAASGRTFSEYAMGWFRQAPGKEREFVATISWSGGSTYYTDSVKGRFTISRDNAKNTVYLQMNSLRPEDTAVYYCAAAGLGTVVSEWDYDYDYWGQGTLVTVSSGGGGSGGGGSGGGGSEVQLVESGGGLVQPGGSLRLSCAASGRTFSEYAMGWFRQAPGKEREFVATISWSGGSTYYTDSVKGRFTISRDNAKNTVYLQMNSLRPEDTAVYYCAAAGLGTVVSEWDYDYDYWGQGTLVTVSSGS
notes: ExpiCHO; tetravalent
Take B18: in assay [9], the Kd was under 0.001 nM, the koff is under 1e-07 s⁻¹ and the on-rate (kon) was 2.65e+06 M⁻¹ s⁻¹. In addition, in assay [10], the “PRNT50, authentic SARS-CoV-2” value turned out to be 0.1 µg/mL.
